Results reported in article PMC3821024, “The enzyme carbonic anhydrase as an integral component of biogenic Ca-carbonate formation in sponge spicules^” (FEBS Open Bio, 2013).

Substrate: CC(=O)Oc1ccc([N+](=O)[O-])cc1
Experiment: colorimetric esterase assay, Lineweaver-Burk plot
Type: biochemical, Sycon raphanus
Settings: 15 mM Tris/SO4 pH 7.4, 22 °C, 0.25-3 mM substrate, apparent Km

B1: recombinant carbonic anhydrase (CA) from S. raphanus (Sycon raphanus) (protein)
chain: ASWSYNYGAANGPNNWGMLPGFSTCGNGTKQTPIDIVRASATRQTYPTLSFSGATNETDWTIQNNGHSVAALPTADIWLSGGPLGSKVYKVYNIHIHFGNSSFRASEHSFDGGQRTTGEFHVVTYDRTFSNIGEAVASNRGDALSVFGVLFQAQTGQTYDAGITSLINMAANLTYAGDDYVDGLDFSTMVSALDLQQYYSYMGSLTTPGCAEVVSWIVANRLHYVSPAAIDQLMSLKAGMSATPGIDLQGNTRPLQALNGRTVSRSFDLSGS
notes: carbonic anhydrase domain, lacking signal peptide and transmembrane region; expressed in E. coli, Ni-NTA purified
B1 showed a Km of 6.2 ± 1.0 mM.
